Reference: patent US20040175804A1, “Process for preparing dideoxyinosine using adenosine deaminase enzyme” (priority 2003, published 2004)

Tests used:
[1] = Conversion of a 52-60 g/L solution of ddA in water to ddI by adenosine deaminase; assay type: biochemical; details: for Conversion of ddA to ddI: 40 U/g ddA, 52-60 g/L ddA in water
Protocol: 100.0 g ddA is added to 1900 ml of water at 30° C. (mother liquor from previous runs can also be used). After the ddA has been added (complete dissolution is not necessary), 4000 U of immobilized rec human adenosine deaminase is added. […] The reaction is complete (approximately 5-8 hours) when the level of residual ddA is less than or equal to 1% of the original amount of ddA added. The enzyme solids are removed by filtration (20-30 μm media) and the enzyme cake is washed with 100 ml water. The used enzyme is held as a wet cake at 0-5° C. (for up to 72 hours) and can be recycled to another batch.
Microbial ADA from recombinant E. coli was partially purified and isolated as an ammonium sulfate suspension. E. coli fermentation broth (42 U ADA/mL, 2 L) was centrifuged and the cell pellet was collected and washed with 1 L 100 mM phosphate buffer pH 7.5. The cells were again centrifuged and resuspended in 2 L of the above buffer plus 20% glycerol. The cells were passed once through a microfluidizer. Cell debris was removed by centrifugation and the resulting supernatant was concentrated by ultrafiltration through a 30,000 MWCO cassette. The enzyme was concentrated to a final titer of 390 U/ml. Ammonium sulfate was added to a 50% saturation, the resulting precipitate was collected by centrifugation and re-suspended in 100 ml deionized water. The final titer of the slurry was 740 U/ml; the protein content of the slurry was ˜75 mg/ml.

[2] = ADA activity assay (1 U = 1 μmol of ddA deaminated/min at 37° C.); assay type: biochemical; details: 1 unit = 1 μmol of ddA deaminated/min at 37° C.; on IPS-400 support
Protocol: The enzyme so derived should be assayed for activity. As used herein, a unit (U) of enzymatic activity is that amount of enzyme which will deaminate 1 μmol of ddA per minute at 37° C. Desirably, the final enzyme titer is from about 650-750 U/ml. The assay may be performed by adding enzyme to a 2.4% solution of ddA at 37° C. The reaction is allowed to proceed for 15 min while gently stirring. Tetrahydrofuran is added to stop the reaction. A sample is taken and run on HPLC to determine the amount of ddI formed.
The immobilized enzyme assays show an enzymatic activity of ˜100 U/g. (1 unit=1 μmol of ddA deaminated/min at 37° C.).

B1: Recombinant human immobilized ADA: Human adenosine deaminase (SEQ ID NO: 1) expressed in E. coli, immobilized on glutaraldehyde-activated IPS-400 support (protein, listed as Homo sapiens)
chain: MAQTPAFDKPKVELHVHLDGSIKPETILYYGRRRGIALPANTAEGLLNVIGMDKPLTLPDFLAKFDYYMPAIAGCREAIKRIAYEFVEMKAKEGVVYVEVRYSPHLLANSKVEPIPWNQAEGDLTPDEVVALVGQGLQEGERDFGVKARSILCCMRHQPNWSPKVVELCKKYQQQTVVAIDLAGDETIPGSSLLPGHVQAYQEAVKSGIHRTVHAGEVGSAEVVKEAVDILKTERLGHGYHTLEDQALYNRLRQENMHFEICPWSSYLTGAWKPDTEHAVIRLKNDQANYSLNTDDPLIFKSTLDTDYQMTKRDMGFTEEEFKRLNINAAKSSFLPEDEKRELLDLLYKAYGMPPSASAGQNL
modifications: immobilized on glutaraldehyde-activated IPS-400 support; (1)..(363) gi 14043373
- Conversion of ddA to ddI ([1]; 30 °C, 4.5 hours): 100%
- Conversion of ddA to ddI ([1]; 40 °C, 1.5 hours): 100%
- Stability of the enzyme in the ddA to ddI reaction ([1]; compared with microbial enzymes): significantly more stable than microbial enzymes
- Enzymatic activity of immobilized enzyme [2]: ~100 U/g
